Patent US20210023171A1 (published 2021)
No end group written: not given here.

Molecular target: αvβ5 integrin (soluble / detergent-solubilized) (UniProt P06756 31-1048; P18084 24-799)
Assay: yeast display, flow cytometry

Chain of αvβ5 integrin (soluble / detergent-solubilized) (P06756 31-1048, chain 1 of 2): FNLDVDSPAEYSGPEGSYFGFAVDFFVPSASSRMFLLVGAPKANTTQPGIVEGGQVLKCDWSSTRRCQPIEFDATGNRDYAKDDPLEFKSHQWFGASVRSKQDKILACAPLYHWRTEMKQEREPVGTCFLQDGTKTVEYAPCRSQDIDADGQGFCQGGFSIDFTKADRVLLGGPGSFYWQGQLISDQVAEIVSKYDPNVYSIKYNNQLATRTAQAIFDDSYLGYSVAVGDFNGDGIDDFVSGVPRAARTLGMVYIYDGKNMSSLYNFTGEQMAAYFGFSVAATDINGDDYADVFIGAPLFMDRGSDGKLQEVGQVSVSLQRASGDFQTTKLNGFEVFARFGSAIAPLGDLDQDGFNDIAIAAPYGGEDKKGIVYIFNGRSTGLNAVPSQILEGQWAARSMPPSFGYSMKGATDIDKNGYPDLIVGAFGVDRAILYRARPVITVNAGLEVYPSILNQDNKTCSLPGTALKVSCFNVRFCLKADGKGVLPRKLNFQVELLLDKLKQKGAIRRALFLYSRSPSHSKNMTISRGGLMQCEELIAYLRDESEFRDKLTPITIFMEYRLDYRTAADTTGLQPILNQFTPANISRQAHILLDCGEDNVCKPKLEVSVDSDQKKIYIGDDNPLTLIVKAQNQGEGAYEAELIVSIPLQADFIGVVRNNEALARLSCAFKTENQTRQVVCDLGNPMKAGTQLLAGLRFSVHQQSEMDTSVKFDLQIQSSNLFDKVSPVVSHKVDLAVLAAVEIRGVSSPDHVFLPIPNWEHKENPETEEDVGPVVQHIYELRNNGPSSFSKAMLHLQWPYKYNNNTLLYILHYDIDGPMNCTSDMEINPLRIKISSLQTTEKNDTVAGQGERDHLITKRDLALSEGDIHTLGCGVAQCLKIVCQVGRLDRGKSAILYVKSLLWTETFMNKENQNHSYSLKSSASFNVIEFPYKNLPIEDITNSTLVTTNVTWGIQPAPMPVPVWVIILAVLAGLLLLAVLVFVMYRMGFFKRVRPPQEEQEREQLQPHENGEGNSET
Chain of αvβ5 integrin (soluble / detergent-solubilized) (P18084 24-799, chain 2 of 2): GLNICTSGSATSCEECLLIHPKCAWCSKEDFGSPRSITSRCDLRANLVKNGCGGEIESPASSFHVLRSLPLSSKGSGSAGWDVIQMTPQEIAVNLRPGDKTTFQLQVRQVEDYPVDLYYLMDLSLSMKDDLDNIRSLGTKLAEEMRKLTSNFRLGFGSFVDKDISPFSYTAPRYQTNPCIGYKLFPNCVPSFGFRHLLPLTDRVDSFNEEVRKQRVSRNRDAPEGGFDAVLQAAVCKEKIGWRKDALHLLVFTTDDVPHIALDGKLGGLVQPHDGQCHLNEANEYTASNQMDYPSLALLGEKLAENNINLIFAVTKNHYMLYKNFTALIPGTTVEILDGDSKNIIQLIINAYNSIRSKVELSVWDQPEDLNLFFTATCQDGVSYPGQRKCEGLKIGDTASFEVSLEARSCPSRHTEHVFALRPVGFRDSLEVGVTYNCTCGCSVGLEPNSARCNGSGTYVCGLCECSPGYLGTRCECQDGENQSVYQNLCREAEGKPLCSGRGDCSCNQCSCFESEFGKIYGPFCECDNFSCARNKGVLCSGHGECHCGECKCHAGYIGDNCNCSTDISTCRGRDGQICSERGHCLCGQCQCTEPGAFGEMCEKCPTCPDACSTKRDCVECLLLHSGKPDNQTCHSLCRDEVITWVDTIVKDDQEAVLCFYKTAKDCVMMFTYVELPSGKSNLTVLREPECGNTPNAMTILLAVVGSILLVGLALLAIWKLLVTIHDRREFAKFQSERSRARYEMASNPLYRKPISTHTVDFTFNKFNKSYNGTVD

**Q.** Does GCVRLHESCADTLMAACCDPAATCYCYGRGDNDLRCYCR (ends and bridges not checked; cysteine pairing not given here) [AgRP 7C loop 2 clone 2-3 (yeast-displayed)] bind?
**A.** no binding (tested: 50 nM)

**Q.** Does GCVRLHESCEWGRGGDCCDPAATCYCYGRGDNDLRCYCR (ends and bridges not checked; cysteine pairing not given here) [AgRP 7C loop 2 clone 2-4 (yeast-displayed)] bind?
**A.** no binding (tested: 50 nM)

**Q.** Does GCASGSGDPCLGQQVPCCDPAATCYCYGRGDNDLRCYCR (ends and bridges not checked; cysteine pairing not given here) [AgRP 7C loop 1 clone 1-1 (yeast-displayed)] bind?
**A.** no binding (tested: 50 nM)

**Q.** Does GCLAGLSGPCLGQQVPCCDPAATCYCYGRGDNDLRCYCR (ends and bridges not checked; cysteine pairing not given here) [AgRP 7C loop 1 clone 1-3 (yeast-displayed)] bind?
**A.** no binding (tested: 50 nM)

**Q.** Does GCRPLGDAGCLGQQVPCCDPAATCYCYGRGDNDLRCYCR (ends and bridges not checked; cysteine pairing not given here) [AgRP 7C loop 1 clone 1-2 (yeast-displayed)] bind?
**A.** no binding (tested: 50 nM)

**Q.** Does GCDLYGSHDCLGQQVPCCDPAATCYCYGRGDNDLRCYCR (ends and bridges not checked; cysteine pairing not given here) [AgRP 7C loop 1 clone 1-6 (yeast-displayed)] bind?
**A.** no binding (tested: 50 nM)

**Q.** Does GCRSASVGGCLGQQVPCCDPAATCYCYGRGDNDLRCYCR (ends and bridges not checked; cysteine pairing not given here) [AgRP 7C loop 1 clone 1-4 (yeast-displayed)] bind?
**A.** no binding (tested: 50 nM)

**Q.** Does GCVRLHESCLGQQVPCCSRSDAHCYCYGRGDNDLRCYCR (ends and bridges not checked; cysteine pairing not given here) [AgRP 7C loop 3 clone 3-2 (yeast-displayed)] bind?
**A.** no binding (tested: 50 nM)

**Q.** Does GCVRLHESCGSWGTLACCDPAATCYCYGRGDNDLRCYCR (ends and bridges not checked; cysteine pairing not given here) [AgRP 7C loop 2 clone 2-5 (yeast-displayed)] bind?
**A.** no binding (tested: 50 nM)

**Q.** Does GCVRLHESCGGSVGVECCDPAATCYCYGRGDNDLRCYCR (ends and bridges not checked; cysteine pairing not given here) [AgRP 7C loop 2 clone 2-1 (yeast-displayed)] bind?
**A.** no binding (tested: 50 nM)

**Q.** Does GCVRLHESCDPRVGVRCCDPAATCYCYGRGDNDLRCYCR (ends and bridges not checked; cysteine pairing not given here) [AgRP 7C loop 2 clone 2-2 (yeast-displayed)] bind?
**A.** no binding (tested: 50 nM)

**Q.** Does GCVRLHESCWGSILGHCCDPAATCYCYGRGDNDLRCYCR (ends and bridges not checked; cysteine pairing not given here) [AgRP 7C loop 2 clone 2-6 (yeast-displayed)] bind?
**A.** no binding (tested: 50 nM)

**Q.** Does GCIASGLFGCLGQQVPCCDPAATCYCYGRGDNDLRCYCR (ends and bridges not checked; cysteine pairing not given here) [AgRP 7C loop 1 clone 1-5 (yeast-displayed)] bind?
**A.** no binding (tested: 50 nM)

**Q.** Does GCVRLHESCLGQQVPCCGTPKPECYCYGRGDNDLRCYCR (ends and bridges not checked; cysteine pairing not given here) [AgRP 7C loop 3 clone 3-1 (yeast-displayed)] bind?
**A.** no binding (tested: 50 nM)
